The record followed here is PMC9541495, “Understanding the interaction of 14‐3‐3 proteins with hDMX and hDM2: a structural and biophysical study” (The Febs Journal, 2022).

[ ]: non-standard residue; d: D form. pS = N[C@@H](COP(=O)(O)O)C(=O)O; FAM = 5,6-carboxyfluorescein; Ahx = NCCCCCC(=O)O

Test [1] addresses T1, 14‐3‐3β (human, UniProt P31946 1-246).
T1 construct: 14-3-3 beta, human, full-length protein from the pProEx HTb-His-14-3-3 construct; Written as the protomer; tag removal is told only for the ∆C proteins; source: E. coli BL21(DE3), purified (Ni2+-NTA, dialysis)
T1 sequence (looked up): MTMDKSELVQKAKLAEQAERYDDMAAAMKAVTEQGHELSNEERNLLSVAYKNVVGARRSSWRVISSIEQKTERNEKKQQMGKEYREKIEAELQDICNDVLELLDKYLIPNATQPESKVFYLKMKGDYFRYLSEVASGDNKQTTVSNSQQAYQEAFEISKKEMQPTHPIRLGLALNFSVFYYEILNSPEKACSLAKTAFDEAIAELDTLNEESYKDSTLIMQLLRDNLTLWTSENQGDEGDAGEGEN
The experiment in a line: fluorescence polarisation; fluorescence anisotropy, direct titration: 14-3-3 protein titrated (1/2 dilution series) against 50 nM FAM-Ahx tracer peptide; 10 mM HEPES, 150 mM NaCl, 0.1% Tween 20, 0.1% BSA, pH 7.4; 384 well plates, triplicates; protein concentration as 14-3-3 monomer; 1:1 fit, biphasic curves fitted as two separate 1:1 events (Kd1, Kd2). Conditions: both partners purified.

Test [2] has as its target T2, 14‐3‐3ζ (human, UniProt P63104 1-245).
T2 construct: 14-3-3 zeta, human, full-length protein from the pProEx HTb-His-14-3-3 construct; Written as the protomer; tag removal is told only for the ∆C proteins; source: E. coli BL21(DE3), purified (Ni2+-NTA, dialysis)
T2 sequence (looked up): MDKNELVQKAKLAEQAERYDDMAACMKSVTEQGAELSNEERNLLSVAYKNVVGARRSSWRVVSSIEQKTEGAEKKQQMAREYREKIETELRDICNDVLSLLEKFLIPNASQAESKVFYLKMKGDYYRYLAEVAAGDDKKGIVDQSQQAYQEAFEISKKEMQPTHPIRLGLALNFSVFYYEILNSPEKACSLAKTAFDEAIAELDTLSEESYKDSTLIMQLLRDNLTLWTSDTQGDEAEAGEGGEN
The description is as above. The conditions noted are these: both partners purified.

B1: FAM‐Ahx‐hDM2_(160‐171) ^pSer166 (peptide)
peptide: {FAM-Ahx}-SRRRAI[pS]ETEEN-NH2
notes: hDM2 (human double minute 2 protein), human, residues 160-171; Tracer form used in the FA assays; also called hDM2_(160‐171) ^Ser166; source: synthetic peptide (Fmoc SPPS, HPLC purified)
In general, Kd refers to the equilibrium constant for the complex coming apart. For the molecule B1, the results for the Kd in test [1] and in test [2] were 11.1 ± 0.5 µM and 19.6 ± 0.2 µM, respectively.

B2: FAM‐Ahx‐hDMX_(361‐374) ^pSer367 (peptide)
peptide: {FAM-Ahx}-DCRRTI[pS]APVVRPK-NH2
notes: Tracer form used in the FA assays; source: synthetic peptide (Fmoc SPPS, HPLC purified)
B2: the Kd was found to be 0.51 ± 0.02 µM in test [1] and 0.92 ± 0.03 µM in test [2].

B3: FAM‐Ahx‐hDMX_(335‐349) ^pSer342 (peptide)
peptide: {FAM-Ahx}-SKLTHSL[pS]TSDITAI-NH2
notes: hDMX (human double minute 4 protein, hDM4), human, residues 335-349; Tracer form used in the FA assays; source: synthetic peptide (Fmoc SPPS, HPLC purified)
Turning to B3, the Kd in test [1] is 49.4 ± 11.5 µM; in test [2] it was 95.8 ± 3.6 µM.

B4: FAM‐Ahx‐hDM2_(180‐192) ^pSer186 (peptide)
peptide: {FAM-Ahx}-QRKRHK[pS]DSISLS-NH2
notes: hDM2 (human double minute 2 protein), human, residues 180-192; Tracer form used in the FA assays; source: synthetic peptide (Fmoc SPPS, HPLC purified)
B4: the Kd was determined as 208 ± 6.3 µM in test [1] and 166 ± 5.6 µM in test [2].
